Data from US20180193477A1.

Biological target: CD3 on human CD3+ Jurkat T cells (human) (UniProt P07766)
Assay: cell-based or functional assay

CD3 on human CD3+ Jurkat T cells (human), sequence (P07766 23-207): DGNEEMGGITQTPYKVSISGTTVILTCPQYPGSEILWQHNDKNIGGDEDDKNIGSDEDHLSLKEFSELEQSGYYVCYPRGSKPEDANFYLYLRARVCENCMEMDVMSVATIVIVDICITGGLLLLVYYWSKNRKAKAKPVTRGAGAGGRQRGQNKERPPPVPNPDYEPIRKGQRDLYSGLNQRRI

EC50 (nM) of internalization of the pHAb conjugate, Jurkat cells (CD19-, CD3+): 13.2 nM
internalization of the pHAb conjugate by Jurkat cells: 2 nM
Substance: v2171, bivalent anti-CD3 pHAb conjugated mAb (UCHT1) (antibody)
